Literature values in US9522171B2 (priority 2010, dated 2016).

Assays:
[1] = target: T1, C5 (Rattus norvegicus, UniProt P08650); conditions: rat serum; cited from earlier work
T1 construct: from tissue; host or cells: rat serum

[2] = target: T2, C5 (Homo sapiens, UniProt P01031); conditions: human serum; cited from earlier work
T2 construct: from tissue; host or cells: human serum

[3] = tested on: alternative, classical and lectin complement pathways; conditions: cited from earlier work
[4] = target: T3, C5 (Mus musculus, UniProt P06684); conditions: mouse serum; cited from earlier work
T3 construct: from tissue; host or cells: mouse serum
T3 sequence (P06684 19-1680): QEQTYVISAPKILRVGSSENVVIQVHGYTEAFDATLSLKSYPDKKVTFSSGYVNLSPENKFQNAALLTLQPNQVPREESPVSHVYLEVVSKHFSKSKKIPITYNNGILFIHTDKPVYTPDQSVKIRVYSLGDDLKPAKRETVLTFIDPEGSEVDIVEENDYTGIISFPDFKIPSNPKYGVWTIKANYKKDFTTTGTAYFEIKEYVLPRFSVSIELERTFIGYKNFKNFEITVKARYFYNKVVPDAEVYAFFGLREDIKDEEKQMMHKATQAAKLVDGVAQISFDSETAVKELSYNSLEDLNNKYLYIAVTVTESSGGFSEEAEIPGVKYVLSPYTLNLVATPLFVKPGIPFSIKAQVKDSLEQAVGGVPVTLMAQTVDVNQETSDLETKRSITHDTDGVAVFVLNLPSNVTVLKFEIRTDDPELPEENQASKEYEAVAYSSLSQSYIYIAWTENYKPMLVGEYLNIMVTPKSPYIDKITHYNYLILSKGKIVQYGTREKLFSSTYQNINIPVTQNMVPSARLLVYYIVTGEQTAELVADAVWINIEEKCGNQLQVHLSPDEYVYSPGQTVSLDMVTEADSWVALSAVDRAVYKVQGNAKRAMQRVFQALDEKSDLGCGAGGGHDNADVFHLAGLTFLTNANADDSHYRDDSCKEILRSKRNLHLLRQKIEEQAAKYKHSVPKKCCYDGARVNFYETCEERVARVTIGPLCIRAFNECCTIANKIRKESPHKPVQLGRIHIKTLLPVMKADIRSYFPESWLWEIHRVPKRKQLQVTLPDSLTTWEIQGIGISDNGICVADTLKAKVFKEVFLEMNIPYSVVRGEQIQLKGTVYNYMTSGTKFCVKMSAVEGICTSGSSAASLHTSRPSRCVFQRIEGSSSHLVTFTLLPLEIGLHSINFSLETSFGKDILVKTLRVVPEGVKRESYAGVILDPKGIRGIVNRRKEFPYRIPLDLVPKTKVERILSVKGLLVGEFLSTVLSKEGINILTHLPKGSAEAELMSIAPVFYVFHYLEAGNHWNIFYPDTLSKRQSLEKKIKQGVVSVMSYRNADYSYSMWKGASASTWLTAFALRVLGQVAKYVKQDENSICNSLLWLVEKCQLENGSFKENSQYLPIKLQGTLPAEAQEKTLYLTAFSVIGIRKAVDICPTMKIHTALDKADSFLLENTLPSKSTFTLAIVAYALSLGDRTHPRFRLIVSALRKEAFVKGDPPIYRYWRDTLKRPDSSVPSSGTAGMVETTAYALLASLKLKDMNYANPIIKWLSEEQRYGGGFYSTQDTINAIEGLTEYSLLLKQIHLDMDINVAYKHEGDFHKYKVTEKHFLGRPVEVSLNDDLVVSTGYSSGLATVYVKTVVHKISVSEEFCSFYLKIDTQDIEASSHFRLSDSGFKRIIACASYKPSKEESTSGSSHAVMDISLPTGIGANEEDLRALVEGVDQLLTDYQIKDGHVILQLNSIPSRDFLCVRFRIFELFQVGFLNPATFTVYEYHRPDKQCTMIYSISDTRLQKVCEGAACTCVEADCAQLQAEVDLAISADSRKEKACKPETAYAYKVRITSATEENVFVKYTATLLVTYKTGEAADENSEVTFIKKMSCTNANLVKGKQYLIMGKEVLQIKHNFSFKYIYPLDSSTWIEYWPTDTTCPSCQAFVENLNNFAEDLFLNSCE

T2 sequence (P01031 19-1676): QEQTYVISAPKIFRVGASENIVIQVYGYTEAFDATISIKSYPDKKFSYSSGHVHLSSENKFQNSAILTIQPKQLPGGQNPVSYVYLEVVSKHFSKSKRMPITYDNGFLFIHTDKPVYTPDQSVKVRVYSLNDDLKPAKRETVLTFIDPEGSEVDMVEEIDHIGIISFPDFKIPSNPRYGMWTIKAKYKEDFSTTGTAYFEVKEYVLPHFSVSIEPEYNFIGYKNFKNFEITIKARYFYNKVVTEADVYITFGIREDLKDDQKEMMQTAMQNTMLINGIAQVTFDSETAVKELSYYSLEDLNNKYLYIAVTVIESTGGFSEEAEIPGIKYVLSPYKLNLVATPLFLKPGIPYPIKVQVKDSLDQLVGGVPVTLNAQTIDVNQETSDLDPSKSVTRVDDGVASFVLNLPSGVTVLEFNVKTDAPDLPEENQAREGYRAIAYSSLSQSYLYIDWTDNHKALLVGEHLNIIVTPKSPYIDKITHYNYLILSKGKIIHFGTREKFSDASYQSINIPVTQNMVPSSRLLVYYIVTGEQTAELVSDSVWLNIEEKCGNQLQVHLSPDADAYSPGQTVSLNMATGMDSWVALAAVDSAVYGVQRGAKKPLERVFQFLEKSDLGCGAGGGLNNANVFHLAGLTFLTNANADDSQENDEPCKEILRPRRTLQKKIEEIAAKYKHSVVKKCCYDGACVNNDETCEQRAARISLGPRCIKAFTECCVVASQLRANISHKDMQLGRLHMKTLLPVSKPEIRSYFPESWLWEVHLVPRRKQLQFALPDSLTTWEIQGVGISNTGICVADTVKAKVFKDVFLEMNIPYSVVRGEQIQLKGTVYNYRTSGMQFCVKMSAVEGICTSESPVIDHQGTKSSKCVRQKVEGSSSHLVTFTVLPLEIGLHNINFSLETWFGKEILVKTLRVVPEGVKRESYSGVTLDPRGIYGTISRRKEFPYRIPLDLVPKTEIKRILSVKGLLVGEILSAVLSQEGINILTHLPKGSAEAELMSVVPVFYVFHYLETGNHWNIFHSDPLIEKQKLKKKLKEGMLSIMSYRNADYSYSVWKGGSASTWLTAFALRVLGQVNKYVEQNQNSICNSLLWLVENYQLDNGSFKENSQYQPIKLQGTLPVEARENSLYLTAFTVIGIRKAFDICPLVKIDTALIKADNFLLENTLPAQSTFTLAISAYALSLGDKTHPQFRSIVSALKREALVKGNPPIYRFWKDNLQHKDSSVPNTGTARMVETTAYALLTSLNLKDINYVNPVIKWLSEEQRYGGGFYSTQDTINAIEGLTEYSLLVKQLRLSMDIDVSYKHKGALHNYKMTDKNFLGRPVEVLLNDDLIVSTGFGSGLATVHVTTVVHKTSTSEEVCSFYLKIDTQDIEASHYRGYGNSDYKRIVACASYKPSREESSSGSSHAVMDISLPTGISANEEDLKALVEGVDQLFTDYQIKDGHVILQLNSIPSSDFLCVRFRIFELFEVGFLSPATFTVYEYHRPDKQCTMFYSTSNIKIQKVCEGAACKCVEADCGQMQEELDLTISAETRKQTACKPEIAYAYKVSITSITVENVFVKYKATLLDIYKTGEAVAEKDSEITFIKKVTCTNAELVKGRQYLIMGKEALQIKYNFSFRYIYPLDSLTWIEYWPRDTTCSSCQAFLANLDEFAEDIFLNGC
T1 sequence (P08650 19-1681): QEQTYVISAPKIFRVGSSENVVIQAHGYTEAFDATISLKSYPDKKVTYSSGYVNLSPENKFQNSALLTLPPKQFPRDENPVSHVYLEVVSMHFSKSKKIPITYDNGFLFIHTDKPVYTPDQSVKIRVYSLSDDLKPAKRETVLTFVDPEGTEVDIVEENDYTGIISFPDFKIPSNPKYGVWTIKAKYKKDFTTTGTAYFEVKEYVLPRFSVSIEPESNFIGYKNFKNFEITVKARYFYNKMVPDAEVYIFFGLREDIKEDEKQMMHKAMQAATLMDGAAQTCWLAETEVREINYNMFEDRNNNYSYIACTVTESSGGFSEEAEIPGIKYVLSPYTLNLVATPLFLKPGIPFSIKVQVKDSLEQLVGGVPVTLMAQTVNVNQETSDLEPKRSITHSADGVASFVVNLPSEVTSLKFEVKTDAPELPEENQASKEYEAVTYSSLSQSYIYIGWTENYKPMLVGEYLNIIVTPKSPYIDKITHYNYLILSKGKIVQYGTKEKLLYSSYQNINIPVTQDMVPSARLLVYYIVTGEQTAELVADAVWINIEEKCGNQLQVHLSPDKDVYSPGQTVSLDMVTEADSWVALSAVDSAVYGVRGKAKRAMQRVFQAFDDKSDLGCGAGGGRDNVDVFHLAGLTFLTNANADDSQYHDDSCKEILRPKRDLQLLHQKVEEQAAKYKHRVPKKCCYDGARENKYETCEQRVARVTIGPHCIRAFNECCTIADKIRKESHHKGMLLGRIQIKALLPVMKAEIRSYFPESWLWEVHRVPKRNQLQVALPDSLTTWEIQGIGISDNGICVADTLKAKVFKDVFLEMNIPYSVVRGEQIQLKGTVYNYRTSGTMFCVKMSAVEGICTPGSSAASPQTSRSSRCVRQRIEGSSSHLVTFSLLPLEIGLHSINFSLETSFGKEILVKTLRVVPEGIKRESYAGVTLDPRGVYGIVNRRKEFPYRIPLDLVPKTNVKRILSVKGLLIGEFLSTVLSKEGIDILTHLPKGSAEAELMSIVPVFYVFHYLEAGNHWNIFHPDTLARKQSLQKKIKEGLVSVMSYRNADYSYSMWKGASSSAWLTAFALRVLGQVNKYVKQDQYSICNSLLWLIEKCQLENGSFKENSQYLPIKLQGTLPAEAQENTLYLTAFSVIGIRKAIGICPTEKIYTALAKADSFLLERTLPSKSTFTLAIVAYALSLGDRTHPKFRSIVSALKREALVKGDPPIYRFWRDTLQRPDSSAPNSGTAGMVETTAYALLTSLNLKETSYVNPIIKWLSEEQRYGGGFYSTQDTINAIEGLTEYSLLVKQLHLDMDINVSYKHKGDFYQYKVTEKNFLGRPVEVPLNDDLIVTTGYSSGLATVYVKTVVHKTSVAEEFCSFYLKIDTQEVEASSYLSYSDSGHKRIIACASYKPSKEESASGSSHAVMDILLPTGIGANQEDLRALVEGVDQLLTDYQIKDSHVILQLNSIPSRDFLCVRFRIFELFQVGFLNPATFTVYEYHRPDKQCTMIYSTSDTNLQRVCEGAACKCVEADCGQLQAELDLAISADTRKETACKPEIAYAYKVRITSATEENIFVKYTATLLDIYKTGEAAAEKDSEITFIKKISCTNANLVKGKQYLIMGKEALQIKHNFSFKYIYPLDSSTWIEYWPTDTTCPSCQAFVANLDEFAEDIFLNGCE

In the case of “EV576: Lipocalin protein from salivary glands of the tick Ornithodoros moubata, sequence of FIG. 2; binds complement C5 and LTB4”, the “IC50 for binding C5 and preventing its cleavage by C5 convertase” value (“IC50” below) [1] is listed as “approximately 0.02 mg/ml”, the “IC50” value [2] is listed as “approximately 0.02 mg/ml” and the “inhibition of the complement system” value [3] is listed as “inhibits the alternative, classical and lectin complement pathways”. The “IC50” value [4] was “approximately 0.02 mg/ml”.
